The values below are quoted from earlier work in publication PMC4390431.

By Kd is commonly meant the constant that tells how readily two partners part at equilibrium.

Like-named read-outs stand apart in the source and are kept apart here.

Series [1] concerns the target IscU (Escherichia coli) (UniProt P0ACD4). Put plainly: SPR. On the technique in general: Surface plasmon resonance follows binding to a sensor surface in real time, without labels.
The target is the same in series [2]. Put plainly: SPR. The source holds these as a separate data set.

Sequence of UniProt P0ACD4 (P0ACD4 whole entry): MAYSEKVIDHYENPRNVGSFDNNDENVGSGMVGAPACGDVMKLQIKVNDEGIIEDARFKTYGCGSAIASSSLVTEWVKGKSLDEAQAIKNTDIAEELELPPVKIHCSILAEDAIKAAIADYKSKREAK

For the substance HscA (from UniProt P0A6Z1), the dissociation constant Kd is 37 µM in the series with IscU (Escherichia coli) [1] and 0.1 µM with IscU (Escherichia coli) [2].
